From paper PMC5612115 come the findings set out here.

One experiment deals with His6-tagged sCD4 (D1-D2). Kind of experiment: BLI. For orientation: BLI is a label-free optical method that tracks binding on a fibre tip over time.
In experiment [1] the target is LT5.J4b12C SOSIP.664 trimeric Env (HIV-1 B/C recombinant, soluble gp140) (HIV-1). Kind of experiment: negative-stain EM.

As a reminder, the stoichiometry N is the number of molecules, sites or subunits per partner or assembly.

Turning to “LT5.J4b12C SOSIP.664 trimeric Env (HIV-1 B/C recombinant, soluble gp140) (complex)”, the fold lower affinity than BG505 SOSIP.664 with His6-tagged sCD4 (D1-D2) was 3 fold. Further, the stoichiometry N in experiment [1] came out at 3.
